Experimental data reported in article PMC10907721.

Molecular target: T1, Hop1 CBR WT (Saccharomyces cerevisiae) (UniProt P20050)
T1 sequence: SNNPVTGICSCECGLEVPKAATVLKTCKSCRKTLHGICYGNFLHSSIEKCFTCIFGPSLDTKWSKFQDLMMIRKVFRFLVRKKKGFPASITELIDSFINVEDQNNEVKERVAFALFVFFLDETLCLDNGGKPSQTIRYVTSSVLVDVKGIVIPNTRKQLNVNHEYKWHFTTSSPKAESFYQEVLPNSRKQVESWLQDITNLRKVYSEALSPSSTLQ
Experiment: EMSA
Settings: EMSA: 20 mM Tris-HCl pH 7.5, 25 mM NaCl, 2 mM beta-mercaptoethanol, 10% glycerol; 50 nM nucleosome or DNA; 15 min room temperature; 6% TBE-acrylamide gel, 0.2X …

**Q.** “TGGAGAATCCCGGTGCCGAGGCCGCTCAATTGGTCGTAGACAGCTCTAGCACCGCTTAAACGCACGTACGCGCTGTCCCCCGCGTTTTAACCGCCAAGGGGATTACTCCCTAGTCTCCAGGCACGTGTCAGATATATACATCCTGT (double strand) [Widom 601 mononucleosome (human histones)]” was tested. Which Kd did it give?
**A.** The Kd was 470 nM.
